T1: Human GPA33 on GPA33+ colorectal cancer cell lines (Colo 205, LS 174T, SW 1222) (human, UniProt Q99795 22-319)
T1 construct: Endogenous GPA33 on human colorectal cancer cell lines; also called surface human GPA33; GPA33+ tumor cell lines
T1 sequence: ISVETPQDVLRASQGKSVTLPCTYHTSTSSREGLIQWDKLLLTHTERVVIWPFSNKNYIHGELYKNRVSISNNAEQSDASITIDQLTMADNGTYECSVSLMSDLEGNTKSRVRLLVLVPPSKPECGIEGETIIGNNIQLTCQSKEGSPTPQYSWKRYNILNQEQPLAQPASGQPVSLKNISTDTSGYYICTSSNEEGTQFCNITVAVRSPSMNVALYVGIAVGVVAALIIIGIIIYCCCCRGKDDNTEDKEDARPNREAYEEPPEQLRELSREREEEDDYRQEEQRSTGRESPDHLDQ

T2: Human GPA33 (recombinant protein, Novoprotein) (human, UniProt Q99795 22-235)
T2 construct: Bought recombinant protein immobilized on a CM5 chip; also called GPA33 antigen; tumor antigen GPA33
T2 sequence: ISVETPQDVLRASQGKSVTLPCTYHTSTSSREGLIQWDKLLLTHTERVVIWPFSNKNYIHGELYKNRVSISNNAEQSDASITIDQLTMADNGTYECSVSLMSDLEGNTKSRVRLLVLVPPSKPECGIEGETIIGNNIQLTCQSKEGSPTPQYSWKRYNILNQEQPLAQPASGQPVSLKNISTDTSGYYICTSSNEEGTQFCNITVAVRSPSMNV

B1: G3A_chimeric (antibody, V domains shown)
VH: EVKLVESGGGLVKPGGSLKLSCAASGFAFSTYDMSWVRQTPEKRLEWVATISSGGSYTYYLDSVKGRFTISRDSARNTLYLQMSSLRSEDTALYYCAPTTVVPFAYWGQGTLVTVSA
VL: DIVMTQSQKFMSTSVGDRVSITCKASQNVRTVVAWYQQKPGQSPKTLIYLASNRHTGVPDRFTGSGSGTDFTLTISNVQSEDLADYFCLQHWSYPLTFGSGTKLEVK
B2: G3A_VK6+VH2 (antibody, V domains shown)
VH: EVQLVESGGGLVKPGGSLRLSCAASGFAFSTYDMSWVRQAPGKGLEWVATISSGGSYTYYLDSVKGRFTISRDSAKNSLYLQMNSLRAEDTAVYYCAPTTVVPFAYWGQGTLVTVSA
VL: DIQMTQSPSSLSASVGDRVTITCKASQNVRTVVAWYQQKPGKAPKRLIYLASNRHTGVPSRFSGSGSGTEFTLTISNLQPEDFATYFCLQHWSYPLTFGSGTKLEVK
B3: G3A_VK7+VH2 (antibody, V domains shown)
VH: EVQLVESGGGLVKPGGSLRLSCAASGFAFSTYDMSWVRQAPGKGLEWVATISSGGSYTYYLDSVKGRFTISRDSAKNSLYLQMNSLRAEDTAVYYCAPTTVVPFAYWGQGTLVTVSA
VL: DIQMTQSPSSLSASVGDRVTITCKASQNVRTVVAWYQQKPGKAPKRLIYLASNRHTGVPSRFSGSGSGTEFTLTISNVQPEDFATYYCLQHWSYPLTFGSGTKLEVK
B4: G3A_VK8+VH2 (antibody, V domains shown)
VH: EVQLVESGGGLVKPGGSLRLSCAASGFAFSTYDMSWVRQAPGKGLEWVATISSGGSYTYYLDSVKGRFTISRDSAKNSLYLQMNSLRAEDTAVYYCAPTTVVPFAYWGQGTLVTVSA
VL: DIQMTQSPSSLSASVGDRVTITCKASQNVRTVVAWYQQKPGKAPKRLIYLASNRHTGVPSRFSGSGSGTEFTLTISNLQPEDFADYYCLQHWSYPLTFGSGTKLEVK
B5: G3A_VK3+VH1 (antibody, IgG1, V domains shown)
VH: EVQLVESGGGLVKPGGSLRLSCAASGFAFSTYDMSWVRQAPGKGLEWVSTISSGGSYTYYADSVKGRFTISRDNAKNSLYLQMNSLRAEDTAVYYCAPTTVVPFAYWGQGTLVTVSA
VL: DIQMTQSPSSLSTSVGDRVTITCKASQNVRTVVAWYQQKPGKAPKTLIYLASNRHSGVPSRFSGSGSGTEFTLTISNLQPEDFATYYCLQHWSYPLTFGSGTKLEVK
B6: G3A_VK5+VH3 (antibody, V domains shown)
VH: EVQLVESGGGLVKPGGSLRLSCAASGFAFSTYDMSWVRQAPGKGLEWVATISSGGSYTYYADSVKGRFTISRDSAKNSLYLQMNSLRAEDTAVYYCAPTTVVPFAYWGQGTLVTVSA
VL: DIQMTQSPSSLSASVGDRVTITCKASQNVRTVVAWYQQKPGKAPKTLIYLASNRHTGVPSRFSGSGSGTEFTLTISNLQPEDFATYYCLQHWSYPLTFGSGTKLEVK
B7: G3A_VK6+VH3 (antibody, V domains shown)
VH: EVQLVESGGGLVKPGGSLRLSCAASGFAFSTYDMSWVRQAPGKGLEWVATISSGGSYTYYADSVKGRFTISRDSAKNSLYLQMNSLRAEDTAVYYCAPTTVVPFAYWGQGTLVTVSA
VL: DIQMTQSPSSLSASVGDRVTITCKASQNVRTVVAWYQQKPGKAPKRLIYLASNRHTGVPSRFSGSGSGTEFTLTISNLQPEDFATYFCLQHWSYPLTFGSGTKLEVK
B8: G3A_VK7+VH1 (antibody, V domains shown)
VH: EVQLVESGGGLVKPGGSLRLSCAASGFAFSTYDMSWVRQAPGKGLEWVSTISSGGSYTYYADSVKGRFTISRDNAKNSLYLQMNSLRAEDTAVYYCAPTTVVPFAYWGQGTLVTVSA
VL: DIQMTQSPSSLSASVGDRVTITCKASQNVRTVVAWYQQKPGKAPKRLIYLASNRHTGVPSRFSGSGSGTEFTLTISNVQPEDFATYYCLQHWSYPLTFGSGTKLEVK
B9: G3A_VK8+VH1 (antibody, V domains shown)
VH: EVQLVESGGGLVKPGGSLRLSCAASGFAFSTYDMSWVRQAPGKGLEWVSTISSGGSYTYYADSVKGRFTISRDNAKNSLYLQMNSLRAEDTAVYYCAPTTVVPFAYWGQGTLVTVSA
VL: DIQMTQSPSSLSASVGDRVTITCKASQNVRTVVAWYQQKPGKAPKRLIYLASNRHTGVPSRFSGSGSGTEFTLTISNLQPEDFADYYCLQHWSYPLTFGSGTKLEVK
B10: G3A_VK6+VH1 (antibody, V domains shown)
VH: EVQLVESGGGLVKPGGSLRLSCAASGFAFSTYDMSWVRQAPGKGLEWVSTISSGGSYTYYADSVKGRFTISRDNAKNSLYLQMNSLRAEDTAVYYCAPTTVVPFAYWGQGTLVTVSA
VL: DIQMTQSPSSLSASVGDRVTITCKASQNVRTVVAWYQQKPGKAPKRLIYLASNRHTGVPSRFSGSGSGTEFTLTISNLQPEDFATYFCLQHWSYPLTFGSGTKLEVK
B11: G3A_VK5+VH1 (antibody, V domains shown)
VH: EVQLVESGGGLVKPGGSLRLSCAASGFAFSTYDMSWVRQAPGKGLEWVSTISSGGSYTYYADSVKGRFTISRDNAKNSLYLQMNSLRAEDTAVYYCAPTTVVPFAYWGQGTLVTVSA
VL: DIQMTQSPSSLSASVGDRVTITCKASQNVRTVVAWYQQKPGKAPKTLIYLASNRHTGVPSRFSGSGSGTEFTLTISNLQPEDFATYYCLQHWSYPLTFGSGTKLEVK
B12: G3A_VK7+VH3 (antibody, V domains shown)
VH: EVQLVESGGGLVKPGGSLRLSCAASGFAFSTYDMSWVRQAPGKGLEWVATISSGGSYTYYADSVKGRFTISRDSAKNSLYLQMNSLRAEDTAVYYCAPTTVVPFAYWGQGTLVTVSA
VL: DIQMTQSPSSLSASVGDRVTITCKASQNVRTVVAWYQQKPGKAPKRLIYLASNRHTGVPSRFSGSGSGTEFTLTISNVQPEDFATYYCLQHWSYPLTFGSGTKLEVK
B13: G3A_VK4+VH3 (antibody, IgG1, V domains shown)
VH: EVQLVESGGGLVKPGGSLRLSCAASGFAFSTYDMSWVRQAPGKGLEWVATISSGGSYTYYADSVKGRFTISRDSAKNSLYLQMNSLRAEDTAVYYCAPTTVVPFAYWGQGTLVTVSA
VL: DIQMTQSPSSLSASVGDRVTITCKASQNVRTVVAWYQQKPGKAPKTLIYLASNRHTGVPSRFSGSGSGTEFTLTISNLQPEDFATYYCLQHWSYPLTFGSGTKLEVK
B14: G3A_VK3+VH3 (antibody, IgG1, V domains shown)
VH: EVQLVESGGGLVKPGGSLRLSCAASGFAFSTYDMSWVRQAPGKGLEWVATISSGGSYTYYADSVKGRFTISRDSAKNSLYLQMNSLRAEDTAVYYCAPTTVVPFAYWGQGTLVTVSA
VL: DIQMTQSPSSLSTSVGDRVTITCKASQNVRTVVAWYQQKPGKAPKTLIYLASNRHSGVPSRFSGSGSGTEFTLTISNLQPEDFATYYCLQHWSYPLTFGSGTKLEVK

Experiments:
[1] = biological target: T1, Human GPA33 on GPA33+ colorectal cancer …; experiment: cell binding to LS174T Luc cells; IgG format
[2] = biological target: T2, Human GPA33 (recombinant protein, …); experiment: SPR (Biacore), binding to GPA33 protein; IgG format
Method: SPR analysis. Human GPA33 (Novoprotein, Summit, NJ) was immobilized on CM5 chips. Five concentrations of 2-fold serially diluted huA33 IgG1 or huA33-BsAbs (starting at 20 nM) were flowed over the chip using a Biacore™ T100 system (GE Healthcare, Chicago, IL). Binding kinetics of huA33 were measured at 25° C. and binding kinetics of huA33-BsAbs were measured at both 25° C. and 37° C. The sensorgrams were fitted with two state binding model for both to derive kinetic parameters.

[3] = biological target: T1, Human GPA33 on GPA33+ colorectal cancer …; experiment: cell binding to SW1222 Luc cells; IgG format

Binder | EC50 [1] [µg/mL] | Kd [2] [nM] | EC50 [3] [µg/mL]
B1 | 0.248 | 0.196 | 1
B2 | – | 1.74 | 1.07
B3 | 0.576 | 1.75 | 0.795
B4 | 1.09 | 1.85 | 0.993
B5 | 0.642 | 0.19 | 0.338
B6 | 0.424 | 0.238 | 0.387
B7 | 0.847 | 1.45 | 0.614
B8 | 0.481 | 0.888 | 1.14
B9 | 0.454 | 0.975 | 0.568
B10 | 0.402 | 0.884 | 0.831
B11 | 0.44 | 0.171 | 0.496
B12 | 0.768 | 1.62 | –
B13 | 0.279 | 0.236 | 1.03
B14 | 0.398 | 0.241 | 0.391
